Each block holds one molecule with its values, some of them ahead of it. Where no end group is shown, it is not given here.
What was measured:
[1] = target: KD^pY1 (mono-phosphorylated FGFR2IIIb kinase domain) (UniProt P21802); assay: MST; Atto488-labeled protein titrated with the same unlabeled protein, 25 °C; apparent dimerization constant, dimer to monomers
[2] = target: JM (juxtamembrane region of FGFR2IIIb, as used in MST and NMR); assay: MST; JM labeled with Atto 488, serial dilutions of KD titrated, 25 °C, 20 mM HEPES, 150 mM NaCl, 1 mM TCEP, 0.01% Tween 20, pH 7.5; apparent
[3] = target: CT^C1 (C-terminal tail of FGFR2IIIb C1 isoform, GST cleaved) (UniProt P21802); assay: MST; CT^C1 labeled with Atto488, titrated with unlabeled JM-KD^pY1 or KD^pY1, 25 °C
[4] = target: FGFR2 juxtamembrane region (407-462), labelled with Atto 488 (UniProt P21802); assay: MST; JM labelled with Atto 488, serial dilutions of KD titrated, 25 °C; 20 mM HEPES, 150 mM NaCl, 1 mM TCEP, 0.01% Tween 20, pH 7.5; the text calls the constant of KD^pY1 apparent (Kd,app)
[5] = target: JM-KD^pY1 (mono-phosphorylated juxtamembrane region plus kinase domain) (UniProt P21802); assay: MST; Atto488-labeled protein titrated with the same unlabeled protein, 25 °C; apparent dimerization constant, dimer to monomers
[6] = target: JM-KD^pY1 (mono-phosphorylated juxtamembrane region plus kinase domain) (UniProt P21802); assay: SPR; apparent dimerization constant of JM-KD^pY1 (Supplementary Fig. 2c)
[7] = target: CT^C1 (C-terminal tail of FGFR2IIIb C1 isoform, GST cleaved) (UniProt P21802); assay: SPR; BIAcore T100, CT^C1 immobilised on CM4 chip by amine coupling to about 200 RU, analytes at 30 µl/min
[8] = target: FGFR2^C2 tagged with GFP or RFP; assay: FRET or BRET; FLIM of GFP- and RFP-tagged FGFR2 co-expressed in serum-starved HEK293T cells, fixed
[9] = target: FGFR2 C-terminal tail of the C1 isoform, untagged (the last 58 residues of FGFR2) (UniProt P21802); assay: SPR; untagged CT immobilised on a CM4 chip by amine coupling (about 200 RU); JM-KD proteins of different phosphorylation level injected at 30 µl/min, then buffer wash; steady-state fitting
[10] = target: FGFR2^C3 tagged with GFP or RFP; assay: FRET or BRET; FLIM of GFP- and RFP-tagged FGFR2 co-expressed in serum-starved HEK293T cells, fixed
[11] = target: T1, FGFR2 juxtamembrane region (407-462), labelled with Atto 488 (UniProt P21802-3 407-462, Atto 488 dye label); assay: MST; JM labelled with Atto488 (100 nM), 2-fold serial dilutions of CT peptides, 25 °C; 20 mM HEPES, 150 mM NaCl, 1 mM TCEP, 0.01% Tween 20, pH 7.5; conditions: both partners purified
T1 construct: FGFR2 (IIIb isoform) juxtamembrane region, residues 407-462; numbers count on: FGFR2IIIb (C1 isoform, 822 residues); also called JM; 407Juxtamembrane region462; source: synthetic peptide, bought: Genscript
T1 sequence (looked up): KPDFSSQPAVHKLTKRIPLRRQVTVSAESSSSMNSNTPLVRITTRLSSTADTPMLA

[12] = target: T2, FGFR2 kinase domain, mono-phosphorylated on Y657 (UniProt P21802-3 465-764, Y467F (worked out from the printed order of phosphorylation) | Y587F (worked …, phosphotyrosine at 657)); assay: MST; synthetic JM or CT peptides in serial dilution against KD^pY1, 25 °C; 20 mM HEPES, 150 mM NaCl, 1 mM TCEP, 0.01% Tween 20, pH 7.5; conditions: both partners purified
T2 construct: FGFR2 (IIIb isoform) kinase domain, residues 465-764; numbers count on: FGFR2IIIb (C1 isoform, 822 residues); also called KD^pY1; source: E. coli BL21(DE3), purified (Talon, Superdex 75)
T2 sequence (P21802 464-763 Y466F/Y586F/Y588F/Y657F/Y733F): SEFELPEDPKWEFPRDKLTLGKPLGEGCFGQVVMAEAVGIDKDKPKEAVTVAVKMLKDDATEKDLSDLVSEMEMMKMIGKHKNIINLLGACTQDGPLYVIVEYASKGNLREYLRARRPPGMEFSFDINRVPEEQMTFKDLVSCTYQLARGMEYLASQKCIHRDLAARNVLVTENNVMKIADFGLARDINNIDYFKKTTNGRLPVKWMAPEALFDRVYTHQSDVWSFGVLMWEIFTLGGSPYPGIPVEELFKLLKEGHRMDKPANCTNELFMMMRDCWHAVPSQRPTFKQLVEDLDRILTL

[13] = target: T2, FGFR2 kinase domain, …; assay: as above; conditions: both partners purified; remark: listed apart in the source
[14] = target: T3, FGFR2 C-terminal tail of the C1 isoform, untagged, labelled with Atto 488 (UniProt P21802-3 765-822, Atto 488 dye label); assay: MST; CT labelled with Atto 488 (100 nM), 2-fold serial dilutions of JM peptides, 25 °C; 20 mM HEPES, 150 mM NaCl, 1 mM TCEP, 0.01% Tween 20, pH 7.5; conditions: both partners purified
T3 construct: FGFR2 (IIIb, C1 isoform) C-terminal tail, the last 58 residues of FGFR2; numbers count on: FGFR2IIIb (C1 isoform, 822 residues); also called CT^C1; source: E. coli BL21(DE3), purified as GST fusion, GST removed with thrombin
T3 sequence (looked up): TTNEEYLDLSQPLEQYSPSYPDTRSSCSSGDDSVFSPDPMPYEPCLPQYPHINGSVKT

[15] = target: KD^pY1 (mono-phosphorylated FGFR2IIIb kinase domain) (UniProt P21802); assay: MST; peptide fragments of CT against KD^pY1 (Supplementary Table 4, Supplementary Fig. 3a)
[16] = target: JM (juxtamembrane region of FGFR2IIIb, as used in MST and NMR); assay: MST; JM labeled with Atto 488, two-fold serial dilution of CT titrated
FGFR2 JM-KD Y657/658F = target: T4, FGFR2 JM-KD Y657/658F (UniProt P21802-3 414-764, Y657/658F | Y657/658F); assay: SPR; untagged CT immobilised on a CM4 chip by amine coupling (about 200 RU); JM-KD proteins of different phosphorylation level injected at 30 µl/min, then buffer wash; steady-state fitting; conditions: both partners purified
T4 construct: numbers count on: FGFR2IIIb (C1 isoform, 822 residues); source: E. coli BL21(DE3), purified (Talon, Superdex 75)
T4 sequence (P21802 other isoform, or with tags, fused parts or gaps Y657/658F | Y657/658F | Y657/658F | Y657/658F): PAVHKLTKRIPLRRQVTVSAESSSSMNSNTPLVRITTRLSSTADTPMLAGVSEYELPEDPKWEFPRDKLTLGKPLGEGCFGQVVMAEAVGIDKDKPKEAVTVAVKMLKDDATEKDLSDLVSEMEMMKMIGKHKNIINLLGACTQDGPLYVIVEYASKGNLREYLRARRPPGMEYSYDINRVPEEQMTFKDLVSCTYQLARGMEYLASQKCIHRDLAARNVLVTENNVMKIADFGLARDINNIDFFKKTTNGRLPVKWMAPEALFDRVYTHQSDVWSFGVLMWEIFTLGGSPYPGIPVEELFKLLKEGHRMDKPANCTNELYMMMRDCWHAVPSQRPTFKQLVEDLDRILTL

[17] = target: T5, FGFR2 JM-KD, phosphorylation state pY5 (UniProt P21802-3 414-764, Y734F (worked out from the printed order of phosphorylation), phosphotyrosine at 657, 587, 467, 589 and 658); assay: as above; conditions: both partners purified
T5 construct: numbers count on: FGFR2IIIb (C1 isoform, 822 residues); also called JM-KD^pY5; source: E. coli BL21(DE3), purified (Talon, Superdex 75)
T5 sequence (P21802 413-763 Y733F): as the sequence (P21802 other isoform, or with tags, fused parts or gaps Y657/658F | Y657/658F | Y657/658F | Y657/658F) above, with F244Y, F245Y, Y321F counted along it

[18] = target: T6, FGFR2 JM-KD, phosphorylation state pY4 (UniProt P21802-3 414-764, Y658F (worked out from the printed order of phosphorylation) | Y734F (worked …, phosphotyrosine at 657, 587, 467 and 589)); assay: as above; conditions: both partners purified
T6 construct: numbers count on: FGFR2IIIb (C1 isoform, 822 residues); also called JM-KD^pY4; source: E. coli BL21(DE3), purified (Talon, Superdex 75)
T6 sequence (P21802 413-763 Y657F/Y733F): as the sequence (P21802 other isoform, or with tags, fused parts or gaps Y657/658F | Y657/658F | Y657/658F | Y657/658F) above, with F244Y, Y321F counted along it

[19] = target: T7, FGFR2 JM-KD wild type, phosphorylated (UniProt P21802-3 414-764, phosphotyrosines (phosphorylated wild type; sites not listed)); assay: as above; conditions: both partners purified
T7 construct: numbers count on: FGFR2IIIb (C1 isoform, 822 residues); also called JM-KD^pWT; JM-KD^pYWT; source: E. coli BL21(DE3), purified (Talon, Superdex 75)
T7 sequence (P21802 413-763): as the sequence (P21802 other isoform, or with tags, fused parts or gaps Y657/658F | Y657/658F | Y657/658F | Y657/658F) above, with F244Y, F245Y counted along it

[20] = target: T8, FGFR2 JM-KD, phosphorylation state pY2 (UniProt P21802-3 414-764, Y467F (worked out from the printed order of phosphorylation) | Y589F (worked …, phosphotyrosine at 657 and 587)); assay: as above; conditions: both partners purified
T8 construct: numbers count on: FGFR2IIIb (C1 isoform, 822 residues); also called JM-KD^pY2; source: E. coli BL21(DE3), purified (Talon, Superdex 75)
T8 sequence (P21802 413-763 Y466F/Y588F/Y657F/Y733F): as the sequence (P21802 other isoform, or with tags, fused parts or gaps Y657/658F | Y657/658F | Y657/658F | Y657/658F) above, with Y54F, Y176F, F244Y, Y321F counted along it

[21] = target: T9, FGFR2 JM-KD, phosphorylation state pY3 (UniProt P21802-3 414-764, Y589F (worked out from the printed order of phosphorylation) | Y658F (worked …, phosphotyrosine at 657, 587 and 467)); assay: as above; conditions: both partners purified
T9 construct: numbers count on: FGFR2IIIb (C1 isoform, 822 residues); also called JM-KD^pY3; source: E. coli BL21(DE3), purified (Talon, Superdex 75)
T9 sequence (P21802 413-763 Y588F/Y657F/Y733F): as the sequence (P21802 other isoform, or with tags, fused parts or gaps Y657/658F | Y657/658F | Y657/658F | Y657/658F) above, with Y176F, F244Y, Y321F counted along it

Kd [1]: 0.112 µM | Kd [2]: 2.51 µM | Kd [3]: 3.75 µM
Molecule: KD^pY1 (mono-phosphorylated FGFR2IIIb kinase domain) (from UniProt P21802-3 465-764) (domain or fragment)

Kd [4]: 20.5 µM
Molecule: FGFR2 kinase domain, phosphorylation state pY6 (from UniProt P21802-3 465-764) (domain or fragment)

Kd [5]: 3.46 µM | Kd [6]: 3.07 µM | Kd [3]: 0.304 µM | Kd [7]: 0.16 µM
Molecule: JM-KD^pY1 (mono-phosphorylated juxtamembrane region plus kinase domain) (from UniProt P21802-3 414-764) (domain or fragment)

percent of molecules showing dimerization above the control threshold [8]: 16%
Molecule: FGFR2^C2 tagged with GFP or RFP (receptor)

Kd [9]: 4.63 µM
Molecule: FGFR2 JM-KD, phosphorylation state pY6 (from UniProt P21802-3 414-764) (domain or fragment)

percent of molecules showing interaction [10]: 26%
Molecule: FGFR2^C3 tagged with GFP or RFP (receptor)

Kd [11]: 56.6 ± 5.5 µM | Kd [12]: 291 ± 21.4 µM
B1: CT peptide 808-815 (peptide)
peptide: PCLPQYPH
notes: FGFR2 (IIIb, C1 isoform) C-terminal tail, residues 808-815; numbers count on: FGFR2IIIb (C1 isoform, 822 residues); also called CT^808-815; source: synthetic peptide, bought: Genscript

Kd [13]: 36.8 ± 6.23 µM
B2: JM peptide 414-430 (peptide)
peptide: PAVHKLTKRIPLRRQVT
notes: numbers count on: FGFR2IIIb (C1 isoform, 822 residues); source: synthetic peptide, bought: Genscript

Kd [13]: 105 ± 7.37 µM | Kd [14]: 200 ± 13.7 µM
B3: JM peptide 407-420 (peptide)
peptide: KPDFSSQPAVHKLT
notes: FGFR2 (IIIb isoform) juxtamembrane region, residues 407-420; numbers count on: FGFR2IIIb (C1 isoform, 822 residues); source: synthetic peptide, bought: Genscript

Kd [11]: 63.6 ± 6.5 µM | Kd [12]: 25.8 ± 5.4 µM | Kd [15]: 25.9 µM
B4: CT peptide 801-815 (peptide)
peptide: PDPMPYEPCLPQYPH
notes: as for B2

Kd [14]: 372 ± 30.3 µM
B5: JM peptide 439-452 (peptide)
peptide: MNSNTPLVRITTRL
notes: FGFR2 (IIIb isoform) juxtamembrane region, residues 439-452; numbers count on: FGFR2IIIb (C1 isoform, 822 residues); source: synthetic peptide, bought: Genscript

Kd [12]: 257 ± 39.2 µM
B6: CT peptide 808-822 (peptide)
peptide: PCLPQYPHINGSVKT
notes: FGFR2 (IIIb, C1 isoform) C-terminal tail, residues 808-822; numbers count on: FGFR2IIIb (C1 isoform, 822 residues); also called CT^808-822; source: synthetic peptide, bought: Genscript

Kd [16]: 20.2 µM
B7: CT^C1 (C-terminal tail of FGFR2IIIb C1 isoform, GST cleaved) (domain or fragment)
chain: T3 sequence (looked up)
modifications: cysteine pairing not given here; also: Atto488 label (MST), place not given here, 15N-labeled (NMR)

Kd (FGFR2 JM-KD Y657/658F): 5.68 µM | Kd [17]: 1.6 µM | Kd [18]: 7.87 µM | Kd [19]: 2.31 µM | Kd [20]: 4.08 µM | Kd [21]: 3.27 µM
B8: FGFR2 C-terminal tail of the C1 isoform, untagged (the last 58 residues of FGFR2) (domain or fragment, UniProt P21802-3 765-822, looked up)
chain: T3 sequence (looked up)
notes: FGFR2 (IIIb, C1 isoform) C-terminal tail, the last 58 residues of FGFR2; numbers count on: FGFR2IIIb (C1 isoform, 822 residues); Unlabelled form: immobilised by amine coupling in SPR; added as 'CT' in the steady-state FRET; also called CT^C1; source: E. coli BL21(DE3), purified as GST fusion, GST removed with thrombin

Kd [14]: 25.4 ± 3.26 µM
B9: JM peptide 449-462 (peptide)
peptide: TTRLSSTADTPMLA
notes: as for B2

Kd [12]: 426 ± 42.5 µM
B10: CT peptide 815-822 (peptide)
peptide: HINGSVKT
notes: FGFR2 (IIIb, C1 isoform) C-terminal tail, residues 815-822; numbers count on: FGFR2IIIb (C1 isoform, 822 residues); also called CT^815-822; source: synthetic peptide, bought: Genscript

Kd [12]: 255 ± 37.9 µM
B11: CT peptide 808-819 (peptide)
peptide: PCLPQYPHINGS
notes: numbers count on: FGFR2IIIb (C1 isoform, 822 residues); also called 808PCLPQYPHINGS819; source: synthetic peptide, bought: Genscript

Kd [14]: 3.23 ± 0.326 µM
B12: JM peptide 429-442 (peptide)
peptide: VTVSAESSSSMNSN
notes: as for B2

— publication PMC10349056, “The combined action of the intracellular regions regulates FGFR2 kinase activity” (Communications Biology, 2023)
